Consider five molecules from patent publication US20220204603A1 (PHARMABCINE, published 2022).

Experiment [1] has as its target T1, His-tagged human Ang1 (R&D systems, 923-AN/CF) (human, UniProt Q15389 20-498, limits assumed).
T1 construct: Bought protein; also called hAng1-his; not shown: His tag
T1 sequence (looked up): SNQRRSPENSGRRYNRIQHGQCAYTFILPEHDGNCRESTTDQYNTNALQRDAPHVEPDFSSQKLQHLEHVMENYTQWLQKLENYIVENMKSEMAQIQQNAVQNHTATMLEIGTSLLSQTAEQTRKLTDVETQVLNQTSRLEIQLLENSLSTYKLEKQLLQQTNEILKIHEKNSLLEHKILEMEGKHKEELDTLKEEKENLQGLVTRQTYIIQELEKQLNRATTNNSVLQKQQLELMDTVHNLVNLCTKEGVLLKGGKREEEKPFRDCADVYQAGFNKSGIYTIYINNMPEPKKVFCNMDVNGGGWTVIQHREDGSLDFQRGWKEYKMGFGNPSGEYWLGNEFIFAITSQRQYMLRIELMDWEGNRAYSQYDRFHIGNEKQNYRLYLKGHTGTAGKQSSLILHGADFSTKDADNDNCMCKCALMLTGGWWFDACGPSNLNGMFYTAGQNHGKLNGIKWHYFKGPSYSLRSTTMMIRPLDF
Put plainly: binding ELISA, His-tagged human Ang1 coated at 1 µg/ml, detection with HRP anti-human IgG(kappa) [panel 'human Ang1 binding ELISA']. Here is the method: (§1) 1 μg/ml (100 μl per well) of a His-tagged human (R&D systems, 623-AN/CF) or mouse (sino, 50298-M07H) Ang2 solution or a His-tagged human (R&D systems, 923-AN/CF) or mouse (sino, 50300-M07H) Ang1 solution was added to a 96-well immunoplate (Nunc, US) and allowed to stand overnight at 4° C. for adsorption. The next day, the solution was washed three times with PBS containing 0.05% Tween-20 (hereinafter, referred to as PBST), and 200 μl of a 2% BSA/PBST solution was added to each well and then allowed to stand at room temperature for 2 hours to perform blocking. After washing three times with PBST, 100 μl of each test antibody solution was added to each well according to concentration to cause binding at room temperature for 1 hour, and then washing was performed three times with PBST, 100 μl of HRP-conjugated goat anti-human IgG(kappa) (bethyl lab #A80-115P) diluted to 1:2000 was added and allowed to react at room temperature for 1 hour, thereby inducing binding, and after washing three times with PBST, color development was performed using 100 μl of a TMB substrate reagent. The color development reaction was stopped by adding 50 μl of 2N H₂SO₄, and a Sunrise microplate reader (TECAN, CH) was used to measure specific absorbance OD₄₅₀₋₆₃₀ (FIG. 3).
(In general: An ELISA detects its analyte on a solid surface through an enzyme-linked reagent.)

Experiment [2] addresses T2, His-tagged mouse Ang1 (sino, 50300-M07H) (mouse, UniProt O08538 20-498).
T2 construct: Bought protein; not shown: His tag
T2 sequence (looked up): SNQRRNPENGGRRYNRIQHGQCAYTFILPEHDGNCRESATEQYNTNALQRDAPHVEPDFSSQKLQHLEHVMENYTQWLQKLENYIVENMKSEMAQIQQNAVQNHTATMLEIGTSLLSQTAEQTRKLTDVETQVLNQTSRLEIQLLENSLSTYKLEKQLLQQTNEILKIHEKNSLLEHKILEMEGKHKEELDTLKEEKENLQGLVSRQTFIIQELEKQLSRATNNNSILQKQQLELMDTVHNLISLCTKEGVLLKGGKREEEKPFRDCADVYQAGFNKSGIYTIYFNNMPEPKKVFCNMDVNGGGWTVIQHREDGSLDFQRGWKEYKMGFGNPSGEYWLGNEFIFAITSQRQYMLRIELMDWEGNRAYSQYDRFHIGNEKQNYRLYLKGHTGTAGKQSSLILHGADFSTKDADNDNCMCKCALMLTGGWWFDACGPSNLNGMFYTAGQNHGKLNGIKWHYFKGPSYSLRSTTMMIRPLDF
The experiment in a line: binding ELISA, His-tagged mouse Ang1 coated at 1 µg/ml, detection with HRP anti-human IgG(kappa) [panel 'mouse Ang1 binding ELISA']. As to the method:
as §1

B1: No. 4 anti-Ang2 antibody (IgG) (antibody, V domains shown)
VH: QVQLVESGAEVKRPGESLRISCKTSGYSFTSYWIHWVRQMPGKELEWMGSIYPGNSDTRYSPSFQGHVTISADSSSSTAYLQWSSLKASDTAMYYCTTEGLMNGLHFDMWGQGTMVTVSS
VL: DIVMTQTPLSLPVTPGEPASISCRSSQSLLHSLGDNYLDWYLQKPGQSPQLLIYLGSKRAAGVPDRFSGSGSGTDFTLKISRVEAEDVGVYYCMQSLQTPPYTFGQGTKLEIKR
notes: IgG form: VH cloned into Invivogen pfusess-hchg1, VL into Invivogen pfuse2ss-hclk; also called 2D8
With B1, the binding result in experiment [1] and in experiment [2] was “no binding (tested: 2 mg/ml (unit as read in the legend))” in each case.

B2: No. 8 anti-Ang2 antibody (IgG) (antibody, V domains shown)
VH: QVQLVESGGGLVKPGGSLRLSCAASGFTFSSYSMNWVRQAPGKGLEWVSSISASDGATYYADSVRGRFTISRDNSRSTLYLQMNSLRAEDTAVYYCAKILAGYSGPMGGMDVWGQGTTVTVSS
VL: DIQMTQSPSSLSASVGDRVTITCRASRDISNYLAWYQQKPGKAPKSLIYGASNLQSGVSSQFSGSGSGTDFTLTINSLQPEDSATYYCQQYYSYPLTFGGGTKVDIKR
notes: IgG form: VH cloned into Invivogen pfusess-hchg1, VL into Invivogen pfuse2ss-hclk; also called 3A10
On to B2, for which the binding result in experiment [1] and in experiment [2] was “no binding (tested: 2 mg/ml (unit as read in the legend))” throughout.

B3: No. 3 anti-Ang2 antibody (IgG) (antibody, V domains shown)
VH: QMQLVQSGGGLVQPGRSLKLSCAASGFSFDDYAMHWVRQAPGKGLEWVATIKDDGSQTYYVDSVKGRFTISRDNAKSSLFLQMNSLRAEDTAVYYCTTEGLMNGLHFDMWGQGTMVTVSS
VL: LVLTQPPSVSGAPGQGVTISCTGSSSNIGAGYDVHWYQQFPGTAPKLLISGNNNRPSGLPDRFSGSKSGTSASLAITGLQAEDEADYYCQSYDSRLGVVFGGGTKLTVLG
notes: IgG form: VH cloned into Invivogen pfusess-hchg1 (heavy chain constant region), VL into Invivogen pfuse2ss-hclk (light chain constant region); Expressed in Expi293F, purified on Protein A; also called 1D10
On to B3, for which the binding result in experiment [1] and in experiment [2] was “no binding (tested: 2 mg/ml (unit as read in the legend))” throughout.

B4: No. 46 anti-Ang2 antibody (IgG) (antibody, V domains shown)
VH: QVQLVESGGGLVQPGRSLRLSCAASGFTFDDCAMHWVRQAPGKGLEWVSGISGNSKNVAYADSVKGRFSISRDDAKNSLYLQMNSLRAEDTAVYYCARDPAYSQFDYWGQGTLITVSS
VL: QSALTQPPSLSATPGQRVTISCSGSSSNVGGYPVNWYQQVPGAAPKLLMYTDYKRPSGVPDRFFGSKSGTSASLAISGLQSEDEADYYCATWDDNLNGYVFGTGTKVTVLG
notes: IgG form: VH cloned into Invivogen pfusess-hchg1, VL into Invivogen pfuse2ss-hclk; also called 3C6
Turning to B4, the binding result in experiment [1] and in experiment [2] was “no binding (tested: 2 mg/ml (unit as read in the legend))” throughout.

B5: No. 41 anti-Ang2 antibody (IgG) (antibody, V domains shown)
VH: QVQLVESGGGLVQPGGSLRLSCEASGFAFGRYEMNWVRQAPGKGLEWIAYIDTGGGAKVYADSVKGRFTISRDDSKNSLYLQMNSLRAEDTAVYYCTTEGLMNGLHFDMWGQGTMITVSS
VL: DIQMTQSPSTLSASVGDRVAITCRASQAISTWLAWYQQKPGKAPKLLIYTASTLESGVPSRFSGSGSGTDFTLTINSLQPDDFATYYCQQLNSYPYTFGGGTKVEIKR
notes: IgG form: VH cloned into Invivogen pfusess-hchg1, VL into Invivogen pfuse2ss-hclk; also called 2B2
With B5, the binding result in experiment [1] and in experiment [2] was “no binding (tested: 2 mg/ml (unit as read in the legend))” in each case.
